Data on 5 variants can be found in IntAct's records for PubMed 17157788.

The labels stand for the following.
B1: Protein AATF (Homo sapiens), Q9NY61 (parent)
chain: MAGPQPLALQLEQLLNPRPSEADPEADPEEATAARVIDRFDEGEDGEGDFLVVGSIRKLASASLLDTDKRYCGKTTSRKAWNEDHWEQTLPGSSDEEISDEEGSGDEDSEGLGLEEYDEDDLGAAEEQECGDHRESKKSRSHSAKTPGFSVQSISDFEKFTKGMDDLGSSEEEEDEESGMEEGDDAEDSQGESEEDRAGDRNSEDDGVVMTFSSVKVSEEVEKGRAVKNQIALWDQLLEGRIKLQKALLTTNQLPQPDVFPLFKDKGGPEFSSALKNSHKALKALLRSLVGLQEELLFQYPDTRYLVDGTKPNAGSEEISSEDDELVEEKKQQRRRVPAKRKLEMEDYPSFMAKRFADFTVYRNRTLQKWHDKTKLASGKLGKGFGAFERSILTQIDHILMDKERLLRRTQTKRSVYRVLGKPEPAAQPVPESLPGEPEILPQAPANAHLKDLDEEIFDDDDFYHQLLRELIERKTSSLDPNDQVAMGRQWLAIQKLRSKIHKKVDRKASKGRKLRFHVLSKLLSFMAPIDHTTMNDDARTELYRSLFGQLHPPDEGHGD

The first assay covers variants of B1. To be noted: with tf65_human RELA.
Turning to S143A;S189A;S477A;S510A, the “effect of a mutation on the interaction” value is reported as “disrupting interaction”.

The variants in a further assay derive from B1. The settings on record: with atm_human ATM.
Regarding S189A, the “effect of a mutation on the interaction” value is recorded as “disrupting interaction”.

The variants in a further assay derive from B1. To be noted: with chk2_human CHEK2, O96017.
Chain of chk2_human CHEK2, O96017 (O96017 whole entry): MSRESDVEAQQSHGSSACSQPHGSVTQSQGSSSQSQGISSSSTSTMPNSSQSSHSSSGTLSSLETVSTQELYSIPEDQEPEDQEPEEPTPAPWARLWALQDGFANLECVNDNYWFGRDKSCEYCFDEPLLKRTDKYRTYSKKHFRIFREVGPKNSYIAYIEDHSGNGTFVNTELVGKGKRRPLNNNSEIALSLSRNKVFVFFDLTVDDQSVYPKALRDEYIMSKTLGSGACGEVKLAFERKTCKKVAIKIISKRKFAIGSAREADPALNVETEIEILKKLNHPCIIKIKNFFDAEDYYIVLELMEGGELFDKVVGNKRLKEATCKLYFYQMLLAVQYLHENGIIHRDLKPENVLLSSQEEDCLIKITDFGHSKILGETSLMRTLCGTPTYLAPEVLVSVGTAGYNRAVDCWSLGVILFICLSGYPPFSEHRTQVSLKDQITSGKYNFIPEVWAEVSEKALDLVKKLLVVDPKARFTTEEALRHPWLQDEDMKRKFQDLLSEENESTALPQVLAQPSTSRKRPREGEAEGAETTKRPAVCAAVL
Take S141A;R474A: the “effect of a mutation on the interaction” value is reported as “decreasing interaction”.
With S143A;S477A;S510A, the “effect of a mutation on the interaction” value is reported as “disrupting interaction”.
With S141A;K508A, the “effect of a mutation on the interaction” value is “decreasing interaction”.
